# T1: human Robo4 expressed endogenously on HUVEC cells (human, UniProt Q8WZ75 28-1007)
# T1 sequence: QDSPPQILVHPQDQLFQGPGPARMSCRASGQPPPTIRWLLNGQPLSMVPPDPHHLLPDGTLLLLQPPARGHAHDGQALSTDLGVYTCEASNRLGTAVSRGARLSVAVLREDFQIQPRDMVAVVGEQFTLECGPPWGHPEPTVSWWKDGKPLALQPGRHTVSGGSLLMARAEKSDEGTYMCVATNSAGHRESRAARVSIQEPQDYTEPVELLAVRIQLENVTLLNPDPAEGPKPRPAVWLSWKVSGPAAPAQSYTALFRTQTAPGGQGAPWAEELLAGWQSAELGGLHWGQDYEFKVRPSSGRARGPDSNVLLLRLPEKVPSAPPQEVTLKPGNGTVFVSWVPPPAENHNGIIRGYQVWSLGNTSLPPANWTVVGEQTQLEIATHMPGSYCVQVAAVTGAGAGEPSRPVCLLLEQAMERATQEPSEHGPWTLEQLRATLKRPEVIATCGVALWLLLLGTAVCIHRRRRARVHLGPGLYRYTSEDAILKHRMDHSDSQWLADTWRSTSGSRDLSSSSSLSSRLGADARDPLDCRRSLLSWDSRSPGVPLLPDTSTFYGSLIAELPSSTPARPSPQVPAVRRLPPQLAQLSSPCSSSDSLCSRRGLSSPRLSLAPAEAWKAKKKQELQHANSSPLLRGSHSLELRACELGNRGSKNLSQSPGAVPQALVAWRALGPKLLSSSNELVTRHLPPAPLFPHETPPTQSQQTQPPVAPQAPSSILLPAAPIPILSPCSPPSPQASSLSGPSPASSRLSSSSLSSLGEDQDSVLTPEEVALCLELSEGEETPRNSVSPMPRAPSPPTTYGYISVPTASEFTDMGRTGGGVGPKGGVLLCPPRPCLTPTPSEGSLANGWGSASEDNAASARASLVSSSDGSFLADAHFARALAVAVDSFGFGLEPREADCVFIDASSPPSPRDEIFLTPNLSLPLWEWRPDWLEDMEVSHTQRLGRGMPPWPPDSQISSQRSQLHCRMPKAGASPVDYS
# T2: murine Robo4 expressed endogenously on MS1 cells (mouse, UniProt Q8C310 28-1012)
# T2 construct: whole, on cells
# T2 sequence (looked up): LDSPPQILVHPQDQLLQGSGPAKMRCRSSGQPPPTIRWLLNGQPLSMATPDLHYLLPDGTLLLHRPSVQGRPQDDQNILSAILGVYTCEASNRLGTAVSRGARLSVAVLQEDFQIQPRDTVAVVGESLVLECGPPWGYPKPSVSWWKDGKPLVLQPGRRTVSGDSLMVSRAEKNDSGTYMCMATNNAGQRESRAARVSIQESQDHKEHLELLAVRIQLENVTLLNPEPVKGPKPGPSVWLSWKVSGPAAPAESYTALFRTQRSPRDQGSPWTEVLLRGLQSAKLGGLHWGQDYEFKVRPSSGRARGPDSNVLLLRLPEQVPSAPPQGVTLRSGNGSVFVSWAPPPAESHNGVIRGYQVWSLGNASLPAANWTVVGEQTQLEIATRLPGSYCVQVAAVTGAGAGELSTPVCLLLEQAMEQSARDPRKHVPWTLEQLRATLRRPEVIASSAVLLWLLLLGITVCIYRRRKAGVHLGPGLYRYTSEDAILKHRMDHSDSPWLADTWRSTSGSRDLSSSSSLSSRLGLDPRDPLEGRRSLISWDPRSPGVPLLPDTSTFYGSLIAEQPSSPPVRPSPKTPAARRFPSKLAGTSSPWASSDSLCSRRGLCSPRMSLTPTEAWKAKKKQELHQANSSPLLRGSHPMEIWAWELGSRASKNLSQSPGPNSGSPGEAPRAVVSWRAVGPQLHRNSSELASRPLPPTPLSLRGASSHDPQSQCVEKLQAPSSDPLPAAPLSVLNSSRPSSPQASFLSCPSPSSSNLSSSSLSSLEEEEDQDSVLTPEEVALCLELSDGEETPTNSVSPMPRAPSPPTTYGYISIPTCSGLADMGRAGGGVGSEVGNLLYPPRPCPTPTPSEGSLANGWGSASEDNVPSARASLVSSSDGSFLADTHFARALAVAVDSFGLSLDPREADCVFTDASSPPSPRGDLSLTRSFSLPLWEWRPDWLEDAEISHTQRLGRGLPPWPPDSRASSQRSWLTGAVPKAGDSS
# B1: anti-Robo4 antibody YW71.22 (full length) (antibody, V domains shown)
# VH: EVQLVESGGGLVQPGGSLRLSCAASGFTINGYYIHWVRQAPGKGLEWVGFIYPAGGDTDYADSVKGRFTISADTSKNTAYLQMNSLRAEDTAVYYCARLIGNKFGWSSYGMDYWGQGTLVTVSS
# VL: DIQMTQSPSSLSASVGDRVTITCRASQDVSTAVAWYQQKPGKAPKLLIYSASFLYSGVPSRFSGSGSGTDFTLTISSLQPEDFATTYCQQSYTTPPTFGQGTKVEIKR
# notes: also called parent antibody
# Key:
# [1] = biological target: T1, human Robo4 expressed endogenously on …; test: FACS on HUVEC cells, Alexa 488 detection
# [2] = biological target: T2, murine Robo4 expressed endogenously on …; test: FACS on MS1 cells, Alexa 488 detection
binder,measurement,setting,value
B1,binding result,[1],binds
same,binding result,[2],binds
